Measured values reported in patent US20120027773A1 (AVEO PHARMACEUTICALS, published 2012).

What was measured:
[1] = target: T1, recombinant human RON SEMA and PSI domains (human, UniProt Q04912 25-571); assay: SPR, Ab captured on anti-human IgG Fc, 37 C, screening
T1 construct: domain: SEMA+PSI; Commercial protein (R&D Systems); also called rhRON SEMA+PSI; hRON SEMA+PSI
Procedure: (§1) Goat anti-human IgG Fc (Jackson ImmunoResearch, Catalog No. 109-005-098) was immobilized on carboxymethylated dextran CM4 sensor chips (Biacore) by amine coupling (Biacore) using a standard coupling protocol according to the vendor's instructions. The analyses were performed at 37° C. using PBS (Invitrogen) containing 0.05% surfactant P20 (Biacore) as running buffer.
(§2) The antibodies were captured in individual flow cells at a flow rate of 60 μl/minute. Injection time was varied for each antibody to yield an Rₘₐₓ between 30 and 60 RU. Buffer or rhRON SEMA+PSI diluted in running buffer was injected sequentially over a reference surface (no antibody captured) and the active surface (antibody to be tested) for 300 seconds at 60 μl/minute. The dissociation phase was monitored for up to 1200 seconds. The surface was then regenerated with two 60 second injections of Glycine pH 2.25 (made from Glycine pH 2.0 (Biacore) and pH 2.5 (Biacore)) at 60 μl/minute. For the initial screening, only one or two concentrations of rhRON SEMA+PSI were tested, typically 10.0 and 2.5 nM (results are summarized in Table 20).
Kinetic parameters were determined using the kinetic function of the BIAevaluation software (Biacore) with double reference subtraction. Kinetic parameters for each antibody, kₐ (association rate constant), kd (dissociation rate constant) and KD (equilibrium dissociation constant) were determined. Certain monoclonal antibodies were screened using cell culture media supernatant containing secreted antibody, and kinetic values of the monoclonal antibodies on rhRON SEMA+PSI at 37° C. are summarized in Table 20.

[2] = target: T1, recombinant human RON SEMA and PSI …; assay: SPR, purified Ab captured on anti-human IgG Fc, 25 C
[3] = target: T1, recombinant human RON SEMA and PSI …; assay: SPR, purified Ab captured on anti-human IgG Fc, 37 C
Procedure: as §1, §2
The binding affinities and kinetics of certain purified monoclonal antibodies were also determined. To further characterize certain antibodies, the surface plasmon resonance experiments described above were conducted using concentrations of rhRON SEMA+PSI between 0.3125 nM and 10.0 nM (a 2-fold serial dilution).

Kd [1] | koff [1] | kon [1] | Kd [2] | koff [2] | kon [2] | Kd [3] | koff [3] | kon [3] | Binder
260 pM | 0.00022 s⁻¹ | 870000 M⁻¹ s⁻¹ | – | – | – | – | – | – | Sh29B06-9 (antibody, human IgG1, kappa, V domains shown, Chimeric 29B06 Heavy IgG1 + Sh29B06 Kv2-28 Kappa) VH: EVQLQESGPSLVKPSQTLSLTCSVTGDSITSGYWNWIRKFPGNKLEYMGYISYSGKTYYNPSLKSRISITRDTSKNHYYLQLISVTAEDTATYYCARSKYDYAMDYWGQGTSVTVSS VL: DIVMTQSPLSLPVTPGEPASISCRASEIVDNFGISFMNWYLQKPGQSPQLLIYAASNQGSGVPDRFSGSGSGTDFTLKISRVEAEDVGVYYCQQSKEVPPTFGGGTKVEIKR
640 pM | 0.00048 s⁻¹ | 780000 M⁻¹ s⁻¹ | 140 pM | 9.5e-05 s⁻¹ | 670000 M⁻¹ s⁻¹ | 460 pM | 0.00033 s⁻¹ | 730000 M⁻¹ s⁻¹ | Sh29B06-23 (antibody, human IgG1, kappa, V domains shown, Humanized, human IgG1/kappa: Hu29B06 Hv4-59 IgG1 (CDR graft with back mutations) + Sh29B06 Kv2-28 Kappa) VH: QVQLQESGPGLVKPSETLSLTCTVSGDSITSGYWNWIRKPPGKKLEYMGYISYSGKTYYNPSLKSRITISRDTSKNQYSLKLSSVTAADTAVYYCARSKYDYAMDYWGQGTLVTVSS VL: DIVMTQSPLSLPVTPGEPASISCRASEIVDNFGISFMNWYLQKPGQSPQLLIYAASNQGSGVPDRFSGSGSGTDFTLKISRVEAEDVGVYYCQQSKEVPPTFGGGTKVEIKR
– | – | – | 90 pM | 0.00011 s⁻¹ | 1.2e+06 M⁻¹ s⁻¹ | 300 pM | 0.00056 s⁻¹ | 1.8e+06 M⁻¹ s⁻¹ | Sh07F01-43 (antibody, human IgG1, kappa, V domains shown, Humanized, human IgG1/kappa: Sh07F01 Hv3-48 IgG1 + HE L 07F01 Kv1-9 Kappa) VH: EVQLVESGGGLVQPGGSLRLSCAASGFDFSRHWMSWVRQAPGKGLEWVSEINPDSRTINYTPSLKERFTISRDNAKNSLYLQMNSLRAEDTAVYYCARRVRIHYYGAMDSWGQGTTVTVSS VL: DIQLTQSQSFVSTSVGDRVTVTCRASQNVGSSLVWYQQKPGKSPKTLIYSASFLYSGVPSRFSGSGSGTEFTLTISSVQPEDFADYFCQQYNNYPLTFGGGTKVEIKR
560 pM | 0.0012 s⁻¹ | 2.3e+06 M⁻¹ s⁻¹ | 120 pM | 0.00014 s⁻¹ | 1.1e+06 M⁻¹ s⁻¹ | 300 pM | 0.00078 s⁻¹ | 2.5e+06 M⁻¹ s⁻¹ | Sh07F01-69 (antibody, human IgG1, kappa, V domains shown, Humanized, human IgG1/kappa: Sh07F01 Hv3-48 IgG1 + Sh07F01 Kv1-9 F1 Kappa) VH: EVQLVESGGGLVQPGGSLRLSCAASGFDFSRHWMSWVRQAPGKGLEWVSEINPDSRTINYTPSLKERFTISRDNAKNSLYLQMNSLRAEDTAVYYCARRVRIHYYGAMDSWGQGTTVTVSS VL: DIQLTQSPSFLSASVGDRVTITCRASQNVGSSLVWYQQKPGKAPKTLIYSASFLYSGVPSRFSGSGSGTEFTLTISSLQPEDFATYYCQQYNNYPLTFGGGTKVEIKR
540 pM | 0.0014 s⁻¹ | 2.6e+06 M⁻¹ s⁻¹ | 110 pM | 0.00018 s⁻¹ | 1.6e+06 M⁻¹ s⁻¹ | 240 pM | 0.00079 s⁻¹ | 3.2e+06 M⁻¹ s⁻¹ | Sh07F01-83 (antibody, human IgG1, kappa, V domains shown, Humanized, human IgG1/kappa: Sh07F01 Hv3-48 D28T T60A L63V E65G IgG1 + Sh07F01 Kv1-9 F1 Kappa) VH: EVQLVESGGGLVQPGGSLRLSCAASGFTFSRHWMSWVRQAPGKGLEWVSEINPDSRTINYAPSVKGRFTISRDNAKNSLYLQMNSLRAEDTAVYYCARRVRIHYYGAMDSWGQGTTVTVSS VL: DIQLTQSPSFLSASVGDRVTITCRASQNVGSSLVWYQQKPGKAPKTLIYSASFLYSGVPSRFSGSGSGTEFTLTISSLQPEDFATYYCQQYNNYPLTFGGGTKVEIKR
380 pM | 0.00073 s⁻¹ | 2e+06 M⁻¹ s⁻¹ | 82 pM | 9.8e-05 s⁻¹ | 1.2e+06 M⁻¹ s⁻¹ | 310 pM | 0.00053 s⁻¹ | 1.7e+06 M⁻¹ s⁻¹ | Sh07F01-2 (antibody, human IgG1, kappa, V domains shown, also called Chimeric 07F01 C102S) VH: EVKLLESGGGLVQPGGSLKLSCAASGFDFSRHWMSWVRLAPGKGLEWIAEINPDSRTINYTPSLKEKFIISRDNAKNSLFLQMNRVRSEDTALYYCARRVRIHYYGAMDSWGQGTSVTVSS VL: DIVLTQSQKIVSTSVGARVSVTCKASQNVGSSLVWYQQKPGQSPKTLIYSASFRYSGVPDRFTGSGSGTDFTLTISNVQSEDLADYFCQQYNNYPLTFGAGTKLELKR
